Biological target: T1, HMGD-M13A HMG box (D74-M13A) (Drosophila melanogaster, UniProt Q05783 1-74, M13A)
T1 sequence: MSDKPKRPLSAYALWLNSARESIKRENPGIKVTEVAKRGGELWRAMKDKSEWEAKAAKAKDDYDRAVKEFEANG
Assay: X-ray crystallography

B1: GCGATATCGC decamer duplex (dsDNA)
DNA 1: GCGATATCGC
DNA 2: GCGATATCGC
**Q.** Does B1 bind?
**A.** Result: binds
